Results reported in the RNAGym collection of RNA variant scans (doi:10.1073/pnas.2313332121).
This sample holds only a part of the variants without activity.

B1: TPR 5TU (parent)
chain: GGAUCUUCUCGAUCUAACAAAAAAGACAAAUCUGCCACAAAGCUUGAGAGCAUCUUCGGAUGCAGAGGCGGCAGCCUUCGGUGGCGCGAUAGCGCCAACGUUCUCAACUAUGACACGCAAAACGCGUGCUCCGUUGAAUGGAGUUUAUCAUG

Variants of: B1
Assay: polymerase ribozyme fitness, log enrichment relative to wild type (log ratio); higher = more active; in vitro selection for triplet polymerase activity
Summary of the method: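 After PCR construction and transcription, each subunit's mutant library from a heterodimeric triplet polymerase ribozyme was annealed with a biotinylated primer, the partner subunit and triplets. Incubation was frozen, at −7 °C, and extended constructs were gel-excised, bound to streptavidin beads and amplified by RT-PCR, in one selection round done in triplicate. Fitness is the logarithm of a genotype's enrichment divided by that of the wild type, from inverse-variance-weighted replicate averages of Illumina-sequenced inputs and outputs. The base of the logarithm is 2, and genotypes needed ≥10 input reads and ≥1 read per output.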

Going from GGAUCUGCUCGAUCUAACAAAAAAGACAAAUCUGCCACAAAGCUUGAGAGCAUCUUCGGAUGCAGAGGCGGCAGCCUUCGGUGGCGCGAUAGCGCCAACGUUAUCAACUAUGACACGCAAAACGCGUGCUCCGUUGAAUGGAGUUUAUCAUG [U7G C103A] to GGAUCUGCUCGAUCUAACAAAAAAGACAAAUCUGCCACAAAGCUUGAGAGCAUCAUCGGAUGCAGAGGCGGCAGCCUUCGGUGGCGCGAUUGCGCCAACGUUCUCAACUAUGACACGCAAAACGCGUGCACCGUUGAAUGCAGUUUAUCAUG [U7G U55A A91U U130A G141C], the “polymerase ribozyme fitness (log ratio)” value falls from -3.85 to at most -4.2.

GGAUCUGCUCGAUCUAACAAAAAAGACAAAUCUGCCACAAAGCUUGAGACCCUCUUCGGAUGCAGAGGCGGCAGCCUUCGGUGACGCGAUAGCGCCAACGUUCUCAACUAUGAUACGCAAAACGCGUGCUCCGUUGAGUGGAGUUUAUCAUG [U7G G50C A52C G84A C114U A138G] and GGAUCUGCUCGAUCUAACAAAAAAAACUAAUCUGCCACAAAGCUUGAGAGCAUAUUCGGAUGCAGAGGCGGCAGCCUUCGGUGGUGCGAUAGCGCCAACGUUCUCAACUAUGACACGCAAAACGCGUGCUCCGUUGAAUGGAGUUUAGUAUG [U7G G25A A28U C54A C85U U148G C149U] cannot be ordered by “polymerase ribozyme fitness (log ratio)” value: at most -4.2 for the first, at most -4.2 for the second.

Compared with GGAUCUGCUCGAUCUAACAAAAAAGACAAAUUUGCCAUAAAGCUUGAGAGCAUCGUUGGAAACAGAGGCGGCAGCCUUCGGUGGCGCAAUAGCGCCAACGUUCUCAACUAUGACACGCAAAACGCGUGCUCCGUUGAAUGGAGUUCAUCAUG [U7G C32U C38U U55G C57U U61A G62A G88A U146C], GGAUCUGCUCGAUCUAACAAAAAAGACAAAUCUGCCACAAAGCUUGAGAGCAUCUACGCAUGCAGAGGCGGCAGCCUCCGGUGGCGCGAUAGCGCCAACGUUCUCAACUAUGACACGCAAAACGCGUGCUCCGUUGAAUGGAGUUUAUCAUG [U7G U56A G59C U78C] is higher in “polymerase ribozyme fitness (log ratio)” value: at most -4.2 for the first, -2.83 for the second.

First: GGAUCUGCUCGAUCUAACAAAAAAGACAAAUCUGCCACAAAGCUUGAGAGCAUCUUCGGAUGCAGAGGCGGCAGCCUUCGGUGGCGCGAUAGCGCCAACGUUCUCAACUAUGACACGCAAAACGUGUGCUCCGUUGAAUGGAGUUUAUCAUG [U7G C125U]
Second: GGAUCUUAUCGAUCUAACAAAAAAGACAAAUCUGCCACAAAGCUUGAGAGCAUCUUCGGAUGCAGAGGCGGCAGCCUUCGGUGGCGCGAUAGCGCCAACGUUCUCAACUAUGACACGCAAAACGCGUGCUCCGUUGAAUGGAGUUUAUCAUG [C8A]
The “polymerase ribozyme fitness (log ratio)” value of the first is lower: -3.39 for the first, -2.84 for the second.

First: GGAUCUGCUCGAUCUAACAAAAAAGACAAAACUGCCACAAAGCUUGAGAGCAUCUUUGGAUGCAGAGGCGGCAGCCUUCGGUGGCGCGAUAGCCCCAACGUUCUCAACUAUGACACGCAAAACGCGUGCUCCGUCGAAUUGAGUUUACCAUG [U7G U31A C57U G94C U135C G140U U148C]
Second: GGAUCUGCUCGAUCUAACAAAAAAGACAAAUCUGCCACAAAGCUUGAGAGCAUCUUCGGAUGCAGAGGCGGCAGCCUUCGGUGGCGUGAUAGCGCCAACGUUCUCAACUAUGACACGCAAAACGCGUGCUCCGUUGAAUGGAGUUUAUCAUG [U7G C87U]
The “polymerase ribozyme fitness (log ratio)” value of the first is lower: at most -4.2 for the first, -3.04 for the second.

First: GGAUCUGCUCGAUCUAACAAAAAAGACAAAUCUGCCACAAAGCUUGAGAGUAUCUUCGGAUGCAGAGGCGGCAGCCUUCGGUGGCGCCAUAUCGUCAACUUUCUCAACUAUGACACGCAAAACGCGUGCUCCGUUGAAUGGAGUUUAUCAUG [U7G C51U G88C G92U C95U G100U]
Second: GGAUCUGCUCGAUCUAACAAAAAAGACAAAUCUGCCAUAAAGCUUGAGAGCAUCUUCGGAUGCAGAGGCGGCAGCCUUCGGUGGCGCGAUAGCGCCAACGUUCUCAACUAUGACACGCAAAACGCGUGCUCCGUUGAAUGGAGUUUAUCAUG [U7G C38U]
The “polymerase ribozyme fitness (log ratio)” value of the first is lower: at most -4.2 for the first, -2.77 for the second.

Going from GGAUCUGCUCGAUCUAACAAAAAAGACAAAUCUGCCACAAAGCUUGAGAGCAUCAUCGGAUGCAGAGGCGGCAGCCUUCGGUGGCGCGAUAGCGCCAACGUUCUCAACUAUGACACGCAAAACGCGUGCUCCGUUGAAUGGAGUUUAUCAUG [U7G U55A] to GGAUCUGCUCGAUCUAACAAAAAAGACAAAUCUGCCACAAAGCUUGAGAGCAUCUUCGGAUGCAGAGGCGGCAGCCUUCGGUGGCGCGAUAGUGCCAGCGUUCUCAACUAUGACACGCAAAACGCGUGCUCCGUUGAAUGAAGUUUAUCAUG [U7G C93U A98G G141A], the “polymerase ribozyme fitness (log ratio)” value falls from -3.28 to -3.82.

GGAUCUGCUCGAUCUAACAAAAAAGACAAAUCUGCCACAAAGCUUGAGAGCAUCCUCGGAUGCAGAGGCGGCAGCCUUCGGUGGCGCGAUAGCGCCAAUGUUCUCAACUAUGACACGCAAAACGCGUGCUCCGUUGAAUGGAGUUUAUCAUG [U7G U55C C99U] and GGAUCUGCUCGAUCUAACAAAAAAGAUAAAUCUGCCGCAAAGAUUGAGAGCAUCUUAGGAUGCAGAGGCGGCAGCCUUCGGUGGCGCGAUAGCACCAACGUUCUCAACUAUGACACGCAAAACGCGUGCUCCGUUGAAUGGAGUUUAUCAUG [U7G C27U A37G C43A C57A G94A] cannot be ordered by “polymerase ribozyme fitness (log ratio)” value: at most -4.2 for the first, at most -4.2 for the second.

GGAUCUGCUCGAUCUAACAAAAAAGACAAAUCUGCCACAAAGCUUGAGAGCAUCUUCGGAUGCAGAGGCGGCAGGCUUCGGUGGCCCGAUAGCGCCAACGUUCUCAACUAUGACACGCAAAACGCGUGCUCCGUUGAAUGGAGUUUAUCAUG [U7G C75G G86C] and GGAUCUGCUCGAUCUAACAAAAAAGACAAAUCUGCCACAAAGCUUGAGAGCAUCUUCGGAUGCAGAGGCGGUAGCCUUCGGUGGCGAGAUAGCGCCAUCGUUCUCAACUAUGACACGCAAAACGCGUGCUCCGUUGACUGGAGUUUAUCAUG [U7G C72U C87A A98U A138C] cannot be ordered by “polymerase ribozyme fitness (log ratio)” value: at most -4.2 for the first, at most -4.2 for the second.

In the case of GGAUCUGCUCGAACUAUCAAAAAAGACAAAUCUGCCACAAAGCUUGAGAGCAUCUUCGGAUGCAGAGGCGGCAGCCUUCGGUGGCGCGAUAGCGCCAUCGUUCUCACCUAUGACACGCAAAACGCGUGCUCCGUUGAAUGGAGUUCAUCAUG [U7G U13A A17U A98U A107C U146C], the “polymerase ribozyme fitness (log ratio)” value is reported as at most -4.2.
